Experiments:
[1] = biological target: NKp30 on human NK cells (human) (UniProt O14931); assay: cell-based or functional assay
[2] = biological target: recombinant human NKp30 extracellular domain, his-tagged (human) (UniProt O14931); assay: BLI, SEEDbody on anti-human Fc sensors, soluble NKp30, 1:1 fit
[3] = biological target: T1, recombinant human NKp30 extracellular domain, his-tagged (human, UniProt O14931 19-135); assay: BLI as in Example 1
T1 construct: BLI used human NKp30 bought from Abcam (his-tagged ECD); also called rh NKp30 ECD; human NKp30 (Abcam); not shown: his tag
T1 sequence: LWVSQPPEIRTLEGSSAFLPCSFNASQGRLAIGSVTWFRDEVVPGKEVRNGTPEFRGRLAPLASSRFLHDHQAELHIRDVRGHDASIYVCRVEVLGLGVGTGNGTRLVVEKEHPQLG

[4] = biological target: T1, recombinant human NKp30 extracellular …; assay: BLI as in Example 1, maximum binding capacity

Chain of NKp30 on human NK cells (human) (O14931 19-201): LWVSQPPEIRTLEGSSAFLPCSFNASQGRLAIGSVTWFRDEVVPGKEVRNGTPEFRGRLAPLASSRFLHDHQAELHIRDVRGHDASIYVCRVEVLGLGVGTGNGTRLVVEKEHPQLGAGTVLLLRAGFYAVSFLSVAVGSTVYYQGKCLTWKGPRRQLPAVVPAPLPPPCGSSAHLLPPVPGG

B1: VHH6 SEEDbody eff- (bispecific antibody, part only; not given: silenced SEED Fc and cetuximab Fab, V domains shown, not shown: another chain or arm of the molecule; a dimerising Fc or GST; small tags and cut ends)
VHH: DVQLQESGGGLVQTGGSLRLSCAASGLPFSKYAIAWFRQAPGKESEFLVVVSWSGDKFYQDNMKGRCTISRDNAKNTAYLQINSLQPEDTAVYYCAASGSYPVTDRYFYNFWGQGTQVTVSS
Q: For B1, which EC50 (nM), MNC based killing of A431 cells, E:T 80:1 [1] is on record?
A: 1.43 nM

Q: And the Max. Killing (% Lysis), MNC based killing of A431 cells, E:T 80:1 [1]?
A: 42 % Lysis

Q: What about the Kd [2] of the same binder?
A: 292 nM

Q: What about the koff [2] of the same binder?
A: 0.129 s⁻¹

Q: And the kon [2]?
A: 442000 M⁻¹ s⁻¹

B2: VHH16 SEEDbody eff- (bispecific antibody, part only; not given: silenced SEED Fc and cetuximab Fab, V domains shown, not shown: another chain or arm of the molecule; a dimerising Fc or GST; small tags and cut ends)
VHH: DVQLQESGGGLVQPGGSLRLSCTASGSIFSSLTMAWWRQAPGKQRELVAGITTDGSTDYADSVKGRFTISRDNAKNTVYLQMDSLKPEDTAVYYCNKSPYYDPTDYDSWGQGTQVTVSS
Q: What does the source list for B2?
A: EC50 (nM), MNC based killing of A431 cells, E:T 80:1 [1]: 0.00128 nM; Max. IFNγ release (pg/ml), NK cells with A431 cells [1]: 515 pg/mL; Max. Killing (% Lysis), MNC based killing of A431 cells, E:T 80:1 [1]: 50 % Lysis; Max. TNFα release (pg/ml), NK cells with A431 cells [1]: 114 pg/mL; Kd [2]: 0.139 nM; koff [2]: 9.28e-05 s⁻¹; kon [2]: 666000 M⁻¹ s⁻¹

B3: VHH15 SEEDbody eff- (bispecific antibody, part only; not given: silenced SEED Fc and cetuximab Fab, V domains shown, not shown: another chain or arm of the molecule; a dimerising Fc or GST; small tags and cut ends)
VHH: DVQLQESGGGLVQAGGSLRLSCAVSGSTFRLNVMGWYRQAPGKLRDLVAGITADGGVTNYADSVKGRFIISRDNAKNTVYLQMNSLKPEDTAIYYCNTAPANWGSWGQGTQVTVSS
Q: How did the EC50 (nM), MNC based killing of A431 cells, E:T 80:1 [1] turn out when B3 was run?
A: 0.0013 nM

Q: And the Max. Killing (% Lysis), MNC based killing of A431 cells, E:T 80:1 [1]?
A: 50 % Lysis

Q: And the Kd [2]?
A: < 0.001 nM

Q: And the koff [2]?
A: < 1e-07 s⁻¹

Q: What about the kon [2] of the same binder?
A: 440000 M⁻¹ s⁻¹

B4: VHH2 (parental, as tested in Example 9) (VHH)
VHH: DVQLQESGGGLVQAGGSLRLSCAVSGQTWTNYHIGWFRQAPGKARESVASIEWGGRGTYATDSVKGRFTISRDNAKNTVYLQMNSLKPEDTAVYYCAAQSSSRSPLESNYDYWGQGTQVTVSS
notes: expressed and measured by BLI 'as described in Experiment 1' (there: bispecific SEEDbody on anti-human Fc sensors)
Q: With B4 as the binder, how does the Kd [3] read?
A: 2.88 nM

Q: What about the “Emax (nm)” value [4] of the same binder?
A: 0.17 nm

B5: VHH2.2 (humanized) (VHH)
VHH: EVQLVESGGGVVQPGGSLRLSCAVSGQTWTNYHIGWFRQAPGKARESVASIEWGGRGTYATDSVKGRFTISRDNAKNTVYLQMNSLRAEDTAVYYCAAQSSSRSPLESNYDYWGQGTLVTVSS
notes: as for B4
Q: What does the source list for B5?
A: Kd [3]: 2.1 nM; Emax (nm) [4]: 0.15 nm

B6: VHH2.6 (humanized) (VHH)
VHH: EVQLVESGGGVVQPGGSLRLSCAVSGQTWTNYHIGWVRQAPGKGLESVASIEWGGRGTYATDSVKGRFTISRDNAKNTVYLQMNSLRAEDTAVYYCAAQSSSRSPLESNYDYWGQGTLVTVSS
notes: as for B4
Q: Which Kd [3] does the source give for B6 here?
A: 27.6 nM

Q: What about the “Emax (nm)” value [4] of the same binder?
A: 0.07 nm

B7: VHH2.7 (humanized) (VHH)
VHH: EVQLVESGGGVVQPGGSLRLSCAVSGQTWTNYHIGWFRQAPGKGLESVASIEWGGRGTYATDSVKGRFTISRDNAKNTLYLQMNSLRAEDTAVYYCAAQSSSRSPLESNYDYWGQGTLVTVSS
notes: as for B4
Q: B7 was tested. Which Kd [3] did it give?
A: 9.76 nM

Q: What about the “Emax (nm)” value [4] of the same binder?
A: 0.1 nm

B8: VHH2.5 (humanized) (VHH)
VHH: EVQLVESGGGVVQPGGSLRLSCAVSGQTWTNYHIGWFRQAPGKGLESVASIEWGGRGTYATDSVKGRFTISRDNAKNTVYLQMNSLRAEDTAVYYCAAQSSSRSPLESNYDYWGQGTLVTVSS
notes: as for B4
Q: What does the source list for B8?
A: Kd [3]: 2.92 nM; Emax (nm) [4]: 0.11 nm

B9: VHH2.11 (humanized) (VHH)
VHH: EVQLVESGGGVVQPGGSLRLSCAASGQTWTNYHIGWFRQAPGKGLESVASIEWGGRGTYATDSVKGRFTISRDNAKNTVYLQMNSLRAEDTAVYYCAAQSSSRSPLESNYDYWGQGTLVTVSS
notes: as for B4
Q: Which results are given for B9?
A: Kd [3]: 4.7 nM; Emax (nm) [4]: 0.16 nm

B10: VHH2.8 (humanized) (VHH)
VHH: EVQLVESGGGVVQPGGSLRLSCAVSGQTWTNYHIGWFRQAPGKGLEWVASIEWGGRGTYATDSVKGRFTISRDNAKNTLYLQMNSLRAEDTAVYYCAAQSSSRSPLESNYDYWGQGTLVTVSS
notes: as for B4
Q: For B10, which Kd [3] is on record?
A: 6.61 nM

Q: What about the “Emax (nm)” value [4] of the same binder?
A: 0.1 nm

B11: VHH2.1 (humanized) (VHH)
VHH: EVQLVESGGGVVQAGGSLRLSCAVSGQTWTNYHIGWFRQAPGKARESVASIEWGGRGTYATDSVKGRFTISRDNAKNTVYLQMNSLRAEDTAVYYCAAQSSSRSPLESNYDYWGQGTLVTVSS
notes: as for B4
Q: With B11 as the binder, how does the Kd [3] read?
A: 2.91 nM

Q: And the “Emax (nm)” value [4]?
A: 0.18 nm
